These are literature values, as cited in publication PMC10301793 (Marine Drugs, 2023).

pIC50: −log10 of the molar value. Where no end group is shown, it is not given here.

Broadly, the pIC50 is −log10 of the IC50, conventionally taken in molar units.

The target in the data set is α6/α3β4 nAChR (Rattus norvegicus, UniProt P04757+P12392+P43143). Conditions: cited from earlier work.

On to “[D1G,∆Q14]LvIC: LvIC analogue (GCCANPVCNGKHC-NH2; ends and bridges not checked)”, for which the pIC50 was 7.72.
